What was measured:
[1] = molecular target: Nck1-SH3.1 (residues 4–59) (human, UniProt P16333 4-59); experiment: crystal structure; Nck1-SH3.1 with 2-fold molar excess of Ac-…-NH2; 0.1 M BisTris/HCl pH 6.5, 2 M (NH4)2SO4; space group I212121, two complexes in the asymmetric unit; conditions: both partners purified
[2] = molecular target: Nck1-SH3.1 (residues 4–59) (human, UniProt P16333 4-59); experiment: crystal structure; Nck1-SH3.1 (4-59) with 2-fold molar excess of Ac-…-NH2; 0.1 M Bis-Tris/HCl pH 6.5, 2 M (NH4)2SO4; sitting drop, 22 °C; two complexes in the asymmetric unit (5QU2); conditions: both partners purified

binding result [1]	binding result [2]	Binder
binds		Ac-PPPVPNPDY-NH2 (CD3ϵ residues 180–188 (PRS); MM 1109.3 Da; source: synthetic peptide (bought: Biosynthan)) [minimal CD3ϵ peptide Ac-PPPVPNPDY-NH2 (residues 180–188)]
	binds	Ac-PPPVPNPDY-NH2 (also called minimal CD3ε peptide; source: synthetic peptide, from Biosynthan) [CD3ε-derived peptide Ac-PPPVPNPDY-NH2 (residues 180–188)]
